According to the RNAGym collection of RNA variant scans (doi:10.1073/pnas.2313332121):

B1: TPR t1 (parent)
chain: GACCAAUCUGCCCUCAGAGCUCGAGAACAUCUUCGGAUGCAGAGGAGGCAGGCUUCGGUGGCGCGAUAGCGCCAACGUCCUCAACCUCCAAUGCAUCCCACCACAUGAUGAUGCCUGAAGAGCCUUGGUUUUUUG

Variants of: B1
Experiment: polymerase ribozyme fitness, log enrichment relative to wild type (log ratio); higher = more active; in vitro selection for triplet polymerase activity
Summary of the method: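 Fitness is a logarithmic measure of how a genotype enriched relative to the wild type, with replicate averages weighted by inverse variance. The logarithm uses base 2, and enrichment came from Illumina sequencing of input and output libraries. Those libraries were PCR-built, transcribed mutants of each subunit of a heterodimeric triplet polymerase ribozyme, passed through one triplicate in vitro selection round that included frozen incubation at −7 °C, gel excision of extended constructs and streptavidin-bead capture. Genotypes were kept only if they had ≥10 input reads and ≥1 read per output.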

Variant	polymerase ribozyme fitness (log ratio)
C3U A50G U55G G63A	-1.45
C8G G35A	-2.23
G36C G60A C98U	-2.39
C20U G93U	-3.35
C40U G48A A50C C72A	0.216
C4A U21G G44U G63U C82A C124G	-4.8
C56U C76G	-2.08
G35U G113A	-6.27
G57U C82G A95G A111U C123U	-5.66
C12G U92C G120U	1.41
A6G U7G A37G G48U	0.0457
U55A A111U	-2.8
C4A A16G U54G C101A U112A A119G	-0.726
A6U G63C C80U G93C U106A	-3.58
C11G A27C G48A C94G	-4.21
G17U C20U C49A C73G C115A	-1.32
A6U	0.173
U78A C97A	-4.8
C73U A91U U96A U112A G120U	-3.6
G39U G122A	-1.25
C4A C13U	-1.41

Variant	polymerase ribozyme fitness (log ratio)
G45U G51U A118G G120U	-7.09
C15G A37C C73G G120C G128U	-4.14
C11U A29U	-2.46
C70U C94A	-1.13
G63A C70G C73A	-5.82
C8G C76A C82A C114G	-4.44
U9G G17A A18U A46U A84G U87A U112C G127C U134A	-2.66
G57A U81A C104U	-1.98
C34U C56U	-4.1
A5U U7G G47A C72A	-0.365
U9A G19C A41U	-1.63
G60A A100U U129A	-2
G36U U81A	-2.11
A18C A95U C124A	-0.947
U87A U106A G113A	-2.17
G52C C115A A118U U131A	-2.68
C13A	-1.61
C13A U87A U106A	-2.48
A5C C28U U59C C123U	-3.1
A37U G69C U112A G128U	-4.19
C15A G39C G117A	-1.64

Variant	polymerase ribozyme fitness (log ratio)
G77C C86G	-1.47
C53U C85U G127C	-2.36
G77A C94G	-1.19
G63C C80U	-2.4
G48C C85A	-2.11
A118U G128A	-1.29
A83C C89U A95C	-0.794
U21A A41C A90C G93A	-4.16
G71U C89U C101U C123U G128C	-1.14
C56A C79A	-1.77
C85G C99U	-4.35
A91G C104A	-2.34
C8U C73U U112A	1.84
C13U G120C	1.89
G52C C72A C94U G128A	-2.33
G47C G52C G120U C123A	-1.92
C40G A50U G63C	-2.25
G17U A37U G60A C82U	-2.4
G36A C56A	-1.03
A2C C40G C56G C72G C124U	-4.17
U14G G42C A46C C53U G61A	-4.45

Variant	polymerase ribozyme fitness (log ratio)
G69U C89G U106A G120C G122C	-1.79
C15U G57U C102A U116G C123G	-4.08
C11A A41C G58A U96A	-3.23
G42C C73G C79U A95G U129C	-3.37
A2U C8U G69U C82G C114U	-2.12
C28U C101G	-5.15
A46G C123U	0.893
G44A G113A	-2.35
U21A G71A C88U G93A	-2.14
A43U G117U	-3.35
C70U C97G	-5.32
G42A C72U	-2.31
C40A U96G	-1.47
G17U G60C A121G	-0.0519
G63U C88A	-1.89
G45U A46U C56A G93A	-4
A18G G52C	-3.49
C8A G44U G57A C64U	-0.879
C72A G107U	-3.81
A29G C62A	-2.33
C56U A84G A91U C98A C99A G120U	-7.08
